Test results as given in patent US20210032365A1 (Chugai, published 2021).

T1: human C1s (human, UniProt P09871 16-688)
T1 construct: Analyte in the Biacore assays; also called hC1s; serum-derived human C1s (CompTech)
T1 sequence: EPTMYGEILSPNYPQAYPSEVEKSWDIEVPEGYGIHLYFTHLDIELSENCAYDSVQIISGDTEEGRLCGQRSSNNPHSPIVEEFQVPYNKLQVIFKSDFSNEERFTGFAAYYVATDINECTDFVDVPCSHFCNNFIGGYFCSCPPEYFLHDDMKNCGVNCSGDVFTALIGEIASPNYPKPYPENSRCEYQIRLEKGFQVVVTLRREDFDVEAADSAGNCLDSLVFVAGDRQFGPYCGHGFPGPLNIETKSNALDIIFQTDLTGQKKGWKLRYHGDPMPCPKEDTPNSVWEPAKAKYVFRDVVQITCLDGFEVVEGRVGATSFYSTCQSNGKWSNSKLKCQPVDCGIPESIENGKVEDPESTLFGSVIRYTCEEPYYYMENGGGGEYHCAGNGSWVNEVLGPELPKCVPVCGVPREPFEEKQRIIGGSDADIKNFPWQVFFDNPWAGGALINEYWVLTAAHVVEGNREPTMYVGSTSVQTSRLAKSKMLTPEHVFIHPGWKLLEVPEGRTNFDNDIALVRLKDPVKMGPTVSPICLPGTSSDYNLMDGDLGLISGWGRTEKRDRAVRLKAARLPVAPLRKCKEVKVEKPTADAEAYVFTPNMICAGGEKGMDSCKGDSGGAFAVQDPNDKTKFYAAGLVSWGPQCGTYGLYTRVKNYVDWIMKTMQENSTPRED


Tests used:
human C1s [1] = biological target: T1, human C1s; assay: SPR; KD at pH 5.8 (3 uM Ca) over KD at pH 7.4 (1.2 mM Ca)
Experimental: (§1) Each antibody was captured onto the sensor surface by protein A/G. Antibody capture levels were aimed at 200 resonance unit (RU). Serum-derived human C1s (CompTech) or recombinant C1s prepared in EXAMPLE 1 was injected at 50 nM, followed by dissociation. The sensor surface was regenerated in each cycle with 10 mM Glycine-HCl, pH 1.5. […] The ratio of KD 5.8+ to KD 7.4+(“KD 5+/7+”) and that of KD 5.8− to KD 7.4+(“KD 5−/7+”) were calculated. When the KD 5+/7+ or KD 5−/7+ of a variant is larger than that of the parent antibody IPN009VH2-SG4GK/IPN009VK3-SK1, that variant is considered to be “pH”- or “pH and Ca”-dependent, respectively. When binding response in 5(+) buffer and/or in 5(−) buffer of a variant is much lower than that of IPN09VH2/IPN009VK3, that variant is also considered as “pH”- and/or “pH and Ca”-dependent. Therefore, such mutations are effective to generate “pH”- and/or “pH and Ca”-dependent antibody. To further enhance “pH” and/or “pH and Ca” dependency, a combination of histidine mutations was conducted. Antibodies with combinations of histidine mutations were evaluated using Biacore by the method described above.
(§2) C1_1IPN92H0033 (SEQ ID NO: 17)-SG4GK/IPN93L0024 (SEQ ID NO: 18)-SK1 (IPN92H0033/IPN93L0024) was selected for further optimization. Histidine, Lysine, Arginine, aspartic acid, glutamic acid, and glutamine scanning was conducted for CDRs and certain positions of FRs of IPN92H0033/IPN93L0024. Variants with a mutation were generated and purified, and evaluated using Biacore by the method mentioned above. All variants were evaluated using Biacore as mentioned above. Mutations that improved “pH” and/or “pH and Ca” dependency were selected for the combination.

human C1s [2] = biological target: T1, human C1s; assay: SPR; KD at pH 5.8 (1.2 mM Ca) over KD at pH 7.4 (1.2 mM Ca)
Experimental: as §1, §2

human C1s [3] = biological target: T1, human C1s; assay: SPR (Biacore T200, 37C), Ab captured on protein A/G; pH 5.8, 3 uM Ca
Experimental: as §1, §2

human C1s [4] = biological target: T1, human C1s; assay: SPR (Biacore T200, 37C), Ab captured on protein A/G; pH 5.8, 1.2 mM Ca
Experimental: as §1, §2

Binder	KD 5(-)/7(+) (human C1s [1])	KD 5(+)/7(+) (human C1s [2])	Kd (human C1s [3])	koff (human C1s [3])	kon (human C1s [3])	Kd (human C1s [4])	koff (human C1s [4])	kon (human C1s [4])
C1_IPN92H0281-SG4GK/IPN93L0024-SK1 (antibody, human IgG4 S228P, kappa, name in Kabat numbering, Substitutions from IPN009VH2, Kabat numbering; also called IPN92H0281/IPN93L0024) heavy: not shown light: QIVLTQSPATLSLSPGERATLSCTASSSVSSSYLHWYQQKPGKAPKLWIYSTSNLASGVPSRFSGSGSGTDYTLTISSLQPEDFATYYCHQYYRLHPITFGQGTKLEIKRTVAAPSVFIFPPSDEQLKSGTASVVCLLNNFYPREAKVQWKVDNALQSGNSQESVTEQDSKDSTYSLSSTLTLSKADYEKHKVYACEVTHQGLSSPVTKSFNRGEC	1.98	9.4	4.98 nM	0.003 s⁻¹	602000 M⁻¹ s⁻¹	23.6 nM	0.024 s⁻¹	1.02e+06 M⁻¹ s⁻¹
C1_IPN92H0282-SG4GK/IPN93L0024-SK1 (antibody, human IgG4 S228P, kappa, name in Kabat numbering, V domains shown, Substitutions from IPN009VH2, Kabat numbering; also called IPN92H0282/IPN93L0024) VH: EVMLVESGGGLVKPGGSLRLSCAASGFTFSNYAMSWVRQAPGKGLEWVATISSGGSHTYELDSVDERFTISRDNSKDTLYLQMNSLRAEDTALYYCARLFTKHAMDYWGQGTLVTVSS VL: QIVLTQSPATLSLSPGERATLSCTASSSVSSSYLHWYQQKPGKAPKLWIYSTSNLASGVPSRFSGSGSGTDYTLTISSLQPEDFATYYCHQYYRLHPITFGQGTKLEIKR	5.18	10.9	8.55 nM	0.00327 s⁻¹	382000 M⁻¹ s⁻¹	18 nM	0.00998 s⁻¹	553000 M⁻¹ s⁻¹

The next binders have a lower Kd (human C1s [3]) than those just listed; values first:

KD 5(-)/7(+) (human C1s [1])	KD 5(+)/7(+) (human C1s [2])	Kd (human C1s [3])	koff (human C1s [3])	kon (human C1s [3])	Kd (human C1s [4])	koff (human C1s [4])	kon (human C1s [4])	Binder
0.82	2.4	3.88 nM	0.00227 s⁻¹	585000 M⁻¹ s⁻¹	11.3 nM	0.00707 s⁻¹	625000 M⁻¹ s⁻¹	C1_IPN92H0281-SG4GK/IPN93L0091-SK1 (antibody, human IgG4 S228P, kappa, name in Kabat numbering, V domains shown, Substitutions from IPN009VH2 / IPN009VK3, Kabat numbering; also called IPN92H0281/IPN93L0091) VH: EVMLVESGGGLVKPGGSLRLSCAASGFTFSNYAMSWVRQAPGKGLEWVATISSGGSKTYELDSVDERFTISRDNSKDTLYLQMNSLRAEDTALYYCARLFTKHAMDYWGQGTLVTVSS VL: QIVLTQSPATLSLSPGERATLSCTASSSVSSSRLHWYQQKPGKAPKLWIYSTSNLASGVPSRFSGSGSGTDYTLTISSLQPEDFATYYCHQYYRLHPITFGQGTKLEIKR
1.13	8.6	2.21 nM	0.00148 s⁻¹	670000 M⁻¹ s⁻¹	16.9 nM	0.00755 s⁻¹	445000 M⁻¹ s⁻¹	C1_IPN92H0282-SG4GK/IPN93L0091-SK1 (antibody, human IgG4 S228P, kappa, name in Kabat numbering, V domains shown, Substitutions from IPN009VH2 / IPN009VK3, Kabat numbering; also called IPN92H0282/IPN93L0091) VH: EVMLVESGGGLVKPGGSLRLSCAASGFTFSNYAMSWVRQAPGKGLEWVATISSGGSHTYELDSVDERFTISRDNSKDTLYLQMNSLRAEDTALYYCARLFTKHAMDYWGQGTLVTVSS VL: QIVLTQSPATLSLSPGERATLSCTASSSVSSSRLHWYQQKPGKAPKLWIYSTSNLASGVPSRFSGSGSGTDYTLTISSLQPEDFATYYCHQYYRLHPITFGQGTKLEIKR
